The target of assay [1] is T1, human CD28 (full-length, cell surface) (human, UniProt P10747 19-220).
T1 construct: On HEK293FS cells transiently transfected with full-length human CD28, or endogenous on Jurkat cells and primary human T cells; also called hCD28; cluster of differentiation 28
Put plainly: flow cytometry, titration on Jurkat cells (5T4-/PDL1-/CD28+). (Flow cytometry measures light scatter and fluorescence of single cells or particles in a stream.)

Assay [2] deals with T1, human CD28 (full-length, cell surface). Put plainly: flow cytometry, titration of sdAb-hFc on HEK293FS cells transiently transfected with full-length human CD28; Alexa Fluor 647 anti-human IgG.
Experimental: HEK293FS transiently transfected with full-length human CD28 or cynomolgus CD28 were used as CD28-positive cells. Untransfected HEK293FS cells were used as CD28-negative cells. Cells were seeded in 96-well round-bottom plates at 3×10³ cells/well in FACS buffer. The exemplary generated sdAb-hFcs were titrated onto cells and assay plates were incubated for 30 minutes at 4° C. […] Assay plates were incubated for 30 minutes at 4° C. and then cells were washed two times with FACS buffer and resuspended in FACS buffer for analysis using an Intellicyt iQue®.
The target is the same in assay [3]. The experiment in a line: flow cytometry, titration on Jurkat cells (endogenous CD28).
Assay [4] shares this target. Put plainly: flow cytometry on Jurkat cells and primary T cells enriched from PBMCs (endogenous CD28).

B1: cx8370 (PDL1xCD28 bispecific construct) (bispecific antibody)
chain: EVQLLESGGGEVQPGGSLRLSCAASGGIFAIKPISWYRQAPGKQREWVSTTTSSGATNYAESVKGRFTISRDNAKNTLYLQMSSLRAEDTAVYYCNVFEYWGQGTLVTVKPGGSGGSEVQLVQSGGGLVQTGGSLRLSCAASGRMFSNYAMGWFRQAPGKEREFVAAINYRRDSADYADSVKGRFTISRDNAKNTVYLEMNSLKPEDTAIYYCGFTYAGWASSRRDDYNYWGQGTQVTVKPPAPGGPSVFLFPPKPKDTLMISRTPEVTCVVVDVSHEDPEVKFNWYVDGVEVHNAKTKPREEQYNSTYRVVSVLTVLHQDWLNGKEYKCKVSNKALPAPIEKTISKAKGQPREPQVYTLPPSRDELTKNQVSLTCLVKGFYPSDIAVEWESNGQPENNYKTTPPVLDSDGSFFLYSKLTVDKSRWQQGNVFSCSVMHEALHNHYTQKSLSLSPGK
As for B1, the binding result in assay [1] is listed as “no binding”.

B2: 1C9 CD28 sdAb formatted with human IgG1 Fc (sdAb-hFc) (Fc fusion)
chain: EVQLVQSGGGLVQTGGSLRLSCAASGRMFSNYAMGWFRQAPGKEREFVAAINYRRDSADYADSVKGRFTISRDNAKNTVYLEMNSLKPEDTAIYYCGFTYAGWASSRRDDYNYWGQGTQVTVKPPAPELLGGPSVFLFPPKPKDTLMISRTPEVTCVVVDVSHEDPEVKFNWYVDGVEVHNAKTKPREEQYNSTYRVVSVLTVLHQDWLNGKEYKCKVSNKALPAPIEKTISKAKGQPREPQVYTLPPSRDELTKNQVSLTCLVKGFYPSDIAVEWESNGQPENNYKTTPPVLDSDGSFFLYSKLTVDKSRWQQGNVFSCSVMHEALHNHYTQKSLSLSPGK
notes: Bivalent sdAb-IgG1 homodimer; also called 1C9-IgG1; 1C9 sdAb-IgG1
B2: the binding result in assay [2] is reported as “binds”.

B3: 1G7 CD28 sdAb formatted with human IgG1 Fc (sdAb-hFc) (Fc fusion)
chain: EVQLVQSGGALVQAGGSLRLSCVAPRTIGLISLMGWYRQAPGKQRELVATIIASGRTNYAESVKDRFTISRDNAENKVYLQVNSLKPEDTAVYYCRVNAETAPWSRRGFWGQGTQVTVKPPAPELLGGPSVFLFPPKPKDTLMISRTPEVTCVVVDVSHEDPEVKFNWYVDGVEVHNAKTKPREEQYNSTYRVVSVLTVLHQDWLNGKEYKCKVSNKALPAPIEKTISKAKGQPREPQVYTLPPSRDELTKNQVSLTCLVKGFYPSDIAVEWESNGQPENNYKTTPPVLDSDGSFFLYSKLTVDKSRWQQGNVFSCSVMHEALHNHYTQKSLSLSPGK
notes: also called 1G7 sdAb-IgG1
For the molecule B3, the binding result in assay [2] is listed as “binds”.

B4: 2F11 CD28 sdAb formatted with human IgG1 Fc (sdAb-hFc) (Fc fusion)
chain: QVQLQQSGGGLVQAGGSLRLSCVASGISFNVVDMDWHRQAPGKERELVAGITRGGATYYADSVKGRFTISRDNAKNSAYLQLANLKPEDTAVYYCNARWPSRYQNYWGQGTQVTVKPPAPELLGGPSVFLFPPKPKDTLMISRTPEVTCVVVDVSHEDPEVKFNWYVDGVEVHNAKTKPREEQYNSTYRVVSVLTVLHQDWLNGKEYKCKVSNKALPAPIEKTISKAKGQPREPQVYTLPPSRDELTKNQVSLTCLVKGFYPSDIAVEWESNGQPENNYKTTPPVLDSDGSFFLYSKLTVDKSRWQQGNVFSCSVMHEALHNHYTQKSLSLSPGK
notes: Bivalent sdAb-IgG1 homodimer; I treated them as the same clone; also called 2F11 sdAb-IgG1
For the molecule B4, the binding result in assay [2] is “binds”.

B5: cx694 (PDL1xCD28 bispecific construct) (bispecific antibody)
chain: EVQLLESGGGEVQPGGSLRLSCAASGGIFAIKPISWYRQAPGKQREWVSTTTSSGATNYAESVKGRFTISRDNAKNTLYLQMSSLRAEDTAVYYCNVFEYWGQGTLVTVKPGGSGGGGSEVQLVQSGGGLVQTGGSLRLSCAASGRMFSNYAMGWFRQAPGKEREFVAAINYRRDSADYADSVKGRFTISRDNAKNTVYLEMNSLKPEDTAIYYCGFTYAGWASSRRDDYNYWGQGTQVTVKPPAPGGPSVFLFPPKPKDTLMISRTPEVTCVVVDVSHEDPEVKFNWYVDGVEVHNAKTKPREEQYNSTYRVVSVLTVLHQDWLNGKEYKCKVSNKALPAPIEKTISKAKGQPREPQVYTLPPSRDELTKNQVSLTCLVKGFYPSDIAVEWESNGQPENNYKTTPPVLDSDGSFFLYSKLTVDKSRWQQGNVFSCSVMHEALHNHYTQKSLSLSPGK
notes: also called PDL1xCD28 bispecific protein
B5: the binding result in assay [1] is recorded as “no binding”.

B6: cx984 (CD28 monospecific construct) (Fc fusion)
chain: EVQLVQSGGGLVQTGGSLRLSCAASGRMFSNYAMGWFRQAPGKEREFVAAINYRRDSADYADSVKGRFTISRDNAKNTVYLEMNSLKPEDTAIYYCGFTYAGWASSRRDDYNYWGQGTQVTVKPPAPGGPSVFLFPPKPKDTLMISRTPEVTCVVVDVSHEDPEVKFNWYVDGVEVHNAKTKPREEQYNSTYRVVSVLTVLHQDWLNGKEYKCKVSNKALPAPIEKTISKAKGQPREPQVYTLPPSRDELTKNQVSLTCLVKGFYPSDIAVEWESNGQPENNYKTTPPVLDSDGSFFLYSKLTVDKSRWQQGNVFSCSVMHEALHNHYTQKSLSLSPGK
notes: Homodimer of two identical chains; also called monospecific, bivalent CD28 sdAb cx984
As for B6, the binding result in assay [3] is listed as “binds”.

B7: 1C9-xELL (1C9 CD28 sdAb formatted with variant human IgG1 Fc xELL) (Fc fusion)
chain: EVQLVQSGGGLVQTGGSLRLSCAASGRMFSNYAMGWFRQAPGKEREFVAAINYRRDSADYADSVKGRFTISRDNAKNTVYLEMNSLKPEDTAIYYCGFTYAGWASSRRDDYNYWGQGTQVTVKPPAPGGPSVFLFPPKPKDTLMISRTPEVTCVVVDVSHEDPEVKFNWYVDGVEVHNAKTKPREEQYNSTYRVVSVLTVLHQDWLNGKEYKCKVSNKALPAPIEKTISKAKGQPREPQVYTLPPSRDELTKNQVSLTCLVKGFYPSDIAVEWESNGQPENNYKTTPPVLDSDGSFFLYSKLTVDKSRWQQGNVFSCSVMHEALHNHYTQKSLSLSPGK
notes: also called 1C9 sdAb-xELL
In the case of B7, in assay [4], the binding result is given as “binds”.

The values above are taken from patent US20230348600A1 (INHIBRX, published 2023).
